Residue numbers refer to the chain shown, from its start. In names and notes the source's numbering stands. Read-outs that look alike come from different tables or passages of the source.
What was measured:
CD40 [1] = molecular target: T1, CD40 (UniProt P25942 21-193); assay: Octet BLI; biotinylated CD40 on streptavidin sensor;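 further: octet RED96 biolayer interferometry, 300 s association then 300 s dissociation in kinetic buffer, buffer-blank referenced, fitted with a 1:1 Langmuir binding model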
T1 construct: also called biotinylated CD40; CD40 antigen
T1 sequence (P25942 21-193 limits assumed): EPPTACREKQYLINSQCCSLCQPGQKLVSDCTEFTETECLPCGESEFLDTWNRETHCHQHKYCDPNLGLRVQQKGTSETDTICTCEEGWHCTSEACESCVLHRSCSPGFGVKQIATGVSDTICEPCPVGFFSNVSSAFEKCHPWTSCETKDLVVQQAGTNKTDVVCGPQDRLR
Protocol: (§1) Kinetic measurements were performed using the Octet RED96 platform (ForteBIo). […] Association was followed for 300 seconds followed by dissociation in 1x Kinetic buffer for 300 seconds. Sensor tips were regenerated using 10 mM glycine, pH 1.7. Data generated were referenced by subtracting a parallel buffer blank, the baseline was aligned with the γ-axis, inter-step correlation by alignment against dissociation was performed and the data were smoothed by a Savitzky-Golay filter in the data analysis software (v.9.0.0.14). The processed data were fitted using a 1:1 Langmuir binding model with X2 as a measurement of fitting accuracy.
(§2) Binding affinities of all the variants were determined using Octet (Pall ForteBio).

CD40 [2] = molecular target: T1, CD40; assay: dual ELISA: CD40 coated, bsAb titrated, biotinylated EpCAM + streptavidin-HRP; signal needs both targets
Protocol: (§3) Dual ELISA Plates were coated with 0.5 μg/mL CD40 in PBS over night at 4° C. After washing in PBS/0.05% Tween 20 (PBST), the plates were blocked with PBS/2% BSA for at least 30 minutes at room temperature before being washed again. Samples serially diluted in PBS/0.5% BSA were then added and allowed to bind for at least 1 hour at room temperature. […] Dual complexed bsAb with CD40 and EpCAM were detected with HRP-labelled streptavidin. SuperSignal Pico Luminescent was used as substrate and luminescence signals were measured using Fluostar Optima.

EpCAM = molecular target: T2, EpCAM (UniProt P16422 24-265); assay: Octet BLI; biotinylated EpCAM on streptavidin sensor;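 further: octet RED96 kinetics: 300 s association, then 300 s dissociation in 1x Kinetic buffer, buffer-blank referenced, Savitzky-Golay smoothed, fitted to a 1:1 Langmuir binding model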
T2 construct: also called biotinylated EpCAM
T2 sequence (looked up): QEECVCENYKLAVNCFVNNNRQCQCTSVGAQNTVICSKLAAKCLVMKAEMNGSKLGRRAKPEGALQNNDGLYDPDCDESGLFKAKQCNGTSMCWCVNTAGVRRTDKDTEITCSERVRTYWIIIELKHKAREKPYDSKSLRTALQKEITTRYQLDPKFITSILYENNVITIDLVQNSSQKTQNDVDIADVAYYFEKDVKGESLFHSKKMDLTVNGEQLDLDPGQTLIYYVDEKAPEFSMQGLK
Protocol: as §1, §2

CD40 [3] = molecular target: T1, CD40; assay: dual ELISA: CD40 coated, bsAb titrated, biotinylated EpCAM + streptavidin-HRP; signal needs both targets; remark: listed apart in the source
Protocol: as §3

CD40 [4] = molecular target: T1, CD40; assay: as above; remark: listed apart in the source
Protocol: as §3

5T4 = molecular target: T3, 5T4 (UniProt Q13641 32-355); assay: dual target ELISA with 5T4 and CD40 (one coated, the other biotinylated; which is not stated), streptavidin-HRP; signal needs both targets
T3 construct: also called 5T4 antigen (dual target ELISA)
T3 sequence (looked up): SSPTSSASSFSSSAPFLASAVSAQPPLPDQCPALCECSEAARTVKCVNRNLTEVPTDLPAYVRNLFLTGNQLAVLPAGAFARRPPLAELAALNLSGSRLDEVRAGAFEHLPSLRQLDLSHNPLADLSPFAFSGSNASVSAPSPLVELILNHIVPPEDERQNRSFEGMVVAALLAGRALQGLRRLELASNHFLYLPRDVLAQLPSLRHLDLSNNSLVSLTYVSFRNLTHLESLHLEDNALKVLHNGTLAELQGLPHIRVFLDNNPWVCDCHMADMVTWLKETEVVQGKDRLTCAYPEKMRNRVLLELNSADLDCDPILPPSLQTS

CD40 [5] = molecular target: T1, CD40; assay: as above
CD40 expressed on cells [6] = molecular target: T4, CD40 expressed on cells (UniProt P25942 21-277); assay: flow cytometry on B16 cells expressing CD40, anti-human IgG Fcg-PE; B16wt cells as control
T4 construct: whole, on cells; also called B16-CD40; CD40 expressing B16 cells
T4 sequence (P25942 21-277 limits assumed): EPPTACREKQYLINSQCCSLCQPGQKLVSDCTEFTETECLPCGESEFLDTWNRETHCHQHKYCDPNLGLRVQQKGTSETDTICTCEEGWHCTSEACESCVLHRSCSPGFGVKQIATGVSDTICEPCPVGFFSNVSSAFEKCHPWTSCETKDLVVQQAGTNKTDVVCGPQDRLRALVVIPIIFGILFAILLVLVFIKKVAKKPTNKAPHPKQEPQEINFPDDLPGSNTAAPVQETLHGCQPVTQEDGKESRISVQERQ
Protocol: (§4) Binding to respective targets expressed on cells were evaluated using flow cytometry. I brief, CHO cells modified to express 5T4, B16 cells modified to express CD40 as well as the wildtype CHO and B16 cell lines were incubated with titrated concentrations of RUBY™ bsAbs. Binding of the antibodies was detected using fluorochrome-conjugated anti-human IgG and analyzed using flow cytometry.

[7] = molecular target: T5, 5T4 expressed on CHO cells (UniProt Q13641 32-420, limits assumed); assay: flow cytometry on CHO cells expressing 5T4, anti-human IgG Fcg-PE; CHOwt cells as control
T5 construct: whole, on cells; also called CHO-5T4; 5T4 expressing CHO cells
T5 sequence (looked up): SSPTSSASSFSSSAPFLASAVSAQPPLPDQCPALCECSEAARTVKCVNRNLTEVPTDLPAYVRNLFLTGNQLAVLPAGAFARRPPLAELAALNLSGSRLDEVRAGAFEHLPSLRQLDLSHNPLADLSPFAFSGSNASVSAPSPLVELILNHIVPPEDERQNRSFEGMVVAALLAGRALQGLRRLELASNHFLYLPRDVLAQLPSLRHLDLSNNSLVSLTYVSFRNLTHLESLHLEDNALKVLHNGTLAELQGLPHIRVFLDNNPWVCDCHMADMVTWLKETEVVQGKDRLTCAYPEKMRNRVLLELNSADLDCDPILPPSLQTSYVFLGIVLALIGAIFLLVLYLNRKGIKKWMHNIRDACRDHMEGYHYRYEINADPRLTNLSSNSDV
Protocol: as §4

[8] = molecular target: T5, 5T4 expressed on CHO cells; assay: as above; remark: listed apart in the source
Protocol: as §4

CD40 [9] = molecular target: T1, CD40; assay: dual ELISA: CD40 coated, bsAb titrated, biotinylated EpCAM + streptavidin-HRP; signal needs both targets; remark: listed apart in the source
Protocol: as §3

CD40 [10] = molecular target: T1, CD40; assay: as above; remark: listed apart in the source
Protocol: as §3

CD40 [11] = molecular target: T1, CD40; assay: as above; remark: listed apart in the source
Protocol: as §3

CD40 expressed on cells [12] = molecular target: T4, CD40 expressed on cells; assay: flow cytometry on B16 cells expressing CD40, anti-human IgG Fcg-PE; B16wt cells as control; remark: listed apart in the source
Protocol: as §4

B1: AC_05293 (bispecific antibody)
heavy: not shown
light: DIQMTQSPSSLSASVGDRVTITCRASQSISSYLNWYQEKPGKAPKLLIYAASSLQSGVPSRFSGSGSGTDFTLTISSLQPEDFATYYCQQYGRNPPTFGQGTKLEIKRTVAAPSVFIFPPSDEQLKSGTASVVCYLNNFYPREAKVQWKVDNALQSGNSQESVTEQDSKDSTYSLWSTLTLSKADYEKHKVYACEVTHQGLSSPVTKSFNRGEC
chain: EVQLLEQSGAELVRPGTSVKISCKASGYAFTNYWLGWVKERPGHGLEWIGDIFPGSGNIHYNEKFKGKATLTADKSSSTAYMQLSSLTFEDSAVYFCARLRNWDEPMDYWGQGTTVTVSSASTKGPSVFPLAPSSKSTSGGTAALGCLVKDYFPEPVTVSWNSGALTSGVHTFPAVLQSSGLYSLSSVVEVPSSSLGTQTYICNVNHKPSNTKVDKKVEPKSC
notes: Chain H1 (role heavy) = IgG heavy chain-linker-Fab light chain; chain L1 (role light) = IgG light chain; chain H2 (role chain) = Fab heavy chain VH-CH1; also called wt bsAb (AC_05293); wild-type bsAb
For B1, the Kd (CD40 [1]) was 930 pM, the koff (CD40 [1]) was 0.001 s⁻¹ and the kon (CD40 [1]) was 1.1e+06 M⁻¹ s⁻¹. For the same binder, the “EC50 (read off the curve)” value (CD40 [2]) was roughly 0.1 µg/mL, the Kd (EpCAM) was 4800 pM and the koff (EpCAM) was 0.0012 s⁻¹. For the same binder, the kon (EpCAM) was 230000 M⁻¹ s⁻¹ and the “EC50 (read off the curve)” value (CD40 [3]) was roughly 900 pM.

B2: AM_4115-4131 (bispecific antibody)
heavy 1: not shown
light: B1 light
heavy 2: B1 chain with Y183W
notes: AC_05293 backbone; also called double mutant I126S + Y180W; copies: 2 + 2 + 2
In the case of B2, the Kd (CD40 [1]) is reported as 970 pM, the koff (CD40 [1]) is reported as 0.00089 s⁻¹ and the kon (CD40 [1]) is reported as 920000 M⁻¹ s⁻¹. It also gave a Kd (EpCAM) of 7200 pM, a koff (EpCAM) of 0.0013 s⁻¹ and a kon (EpCAM) of 180000 M⁻¹ s⁻¹. The “EC50 (read off the curve)” value (CD40 [4]) was roughly 600 pM.

B3: AC_05330 (bispecific antibody, human IgG1, lambda, L234A L235A)
heavy: not shown
light: not shown
chain: EVQLLESGGGLVQPGGSLRLSCAASGFTFSSYAMSWVREAPGKGLEWVSAISGSGGSTYYADSVKGRFTISRDNSKNTLYLQMNSLRAEDTAVYYCARYYGGYYSAWMDYWGQGTLVTVSSASTKGPSVFPLAPSSKSTSGGTAALGCLVKDYFPEPVTVSWNSGALTSGVHTFPAVLQSSGLYSLSSVVEVPSSSLGTQTYICNVNHKPSNTKVDKKVEPKSC
notes: RUBY format; H1 (role heavy) = IgG heavy chain-linker-Fab light chain, L1 (role light) = IgG light chain, H2 (role chain) = Fab heavy chain; also called parental bsAb AC_05330; CD40x5T4
B3 was tested, and the “EC50 (read off the curve)” value (5T4) was roughly 800 pM, the “EC50 (read off the curve)” value (CD40 [5]) was roughly 800 pM and the “EC50 (read off the curve)” value (CD40 expressed on cells [6]) was roughly 800 pM. For the same binder, the “EC50 (read off the curve)” value [7] was roughly 30000 pM.

B4: AC_05373 (bispecific antibody, human IgG1, lambda, L234A L235A)
heavy 1: not shown
light: not shown
heavy 2: B3 chain with T58E
notes: AC_05330 with the mutation in the VH of chain H2; also called T65E mutant of AC_05330; copies: 2 + 2 + 2
In the case of B4, the “EC50 (read off the curve)” value (5T4) is reported as roughly 700 pM, the “EC50 (read off the curve)” value (CD40 [5]) is reported as roughly 700 pM and the “EC50 (read off the curve)” value (CD40 expressed on cells [6]) is reported as roughly 600 pM. The “EC50 (read off the curve)” value [7] was roughly 30000 pM.

B5: AC_05370 (bispecific antibody, human IgG1, kappa, L234A L235A)
heavy 1: not shown
light: B1 light with Y91T, G92Y, R93G, N94Y, P95L, P96H
heavy 2: EVQLLESGGGLVQPGGSLRLSCAASGFTFSSYAMSWVREAPGKGLEWVSGIGSYGGGEYYADSVKGRFTISRDNSKNTLYLQMNSLRAEDTAVYYCARYVNFGMDYWGQGTLVTVSSASTKGPSVFPLAPSSKSTSGGTAALGCLVKDYFPEPVTVSWNSGALTSGVHTFPAVLQSSGLYSLSSVVEVPSSSLGTQTYICNVNHKPSNTKVDKKVEPKSC
notes: AC_05332 with the mutation in the VH of chain H2; also called T65E mutant of AC_05332; copies: 2 + 2 + 2
In the case of B5, the “EC50 (read off the curve)” value [8] is reported as roughly 9000 pM.

B6: 4115 (bispecific antibody)
heavy 1: not shown
heavy 2: B1 chain
light: B1 light
notes: also called single mutant I126S of AC_05293; copies: 2 + 2 + 2
In the case of B6, the “EC50 (read off the curve)” value (CD40 [9]) is reported as roughly 0.2 µg/mL.

B7: 4109 (bispecific antibody)
heavy 1: not shown
heavy 2: B1 chain
light: B1 light
notes: CD40 x EpCAM; also called single mutant I126A of AC_05293; copies: 2 + 2 + 2
B7 was tested, and the “EC50 (read off the curve)” value (CD40 [2]) was roughly 0.1 µg/mL.

B8: 4110 (bispecific antibody)
heavy 1: not shown
heavy 2: B1 chain
light: B1 light
notes: also called single mutant I126G of AC_05293; copies: 2 + 2 + 2
With B8 the “EC50 (read off the curve)” value (CD40 [2]) was roughly 0.1 µg/mL.

B9: 4112 (bispecific antibody)
heavy 1: not shown
heavy 2: B1 chain
light: B1 light
notes: also called single mutant I126N of AC_05293; copies: 2 + 2 + 2
With B9 the “EC50 (read off the curve)” value (CD40 [10]) was roughly 0.1 µg/mL.

B10: 4114 (bispecific antibody)
heavy 1: not shown
heavy 2: B1 chain
light: B1 light
notes: also called single mutant I126Q of AC_05293; copies: 2 + 2 + 2
For B10, the “EC50 (read off the curve)” value (CD40 [10]) was roughly 0.1 µg/mL.

B11: 4116 (bispecific antibody)
heavy 1: not shown
heavy 2: B1 chain
light: B1 light
notes: also called single mutant I126T of AC_05293; copies: 2 + 2 + 2
With B11 the “EC50 (read off the curve)” value (CD40 [9]) was roughly 0.1 µg/mL.

B12: AM_4115-4126 (bispecific antibody)
heavy 1: not shown
heavy 2: B1 chain with Y183I
light: B1 light
notes: AC_05293 backbone; also called double mutant I126S + Y180I; copies: 2 + 2 + 2
Binder B12 has a Kd (CD40 [1]) of 1100 pM, a koff (CD40 [1]) of 0.00085 s⁻¹ and a kon (CD40 [1]) of 740000 M⁻¹ s⁻¹. For the same binder, the Kd (EpCAM) was 6900 pM, the koff (EpCAM) was 0.0011 s⁻¹ and the kon (EpCAM) was 170000 M⁻¹ s⁻¹. For the same binder, the “EC50 (read off the curve)” value (CD40 [4]) was roughly 500 pM.

B13: AM_4119 (bispecific antibody)
heavy 1: not shown
heavy 2: B1 chain
light: B1 light
notes: also called single mutant A111T of AC_05293; copies: 2 + 2 + 2
B13 was tested, and the “EC50 (read off the curve)” value (CD40 [11]) was roughly 0.1 µg/mL.

B14: AM_4120 (bispecific antibody)
heavy 1: not shown
heavy 2: B1 chain
light: B1 light
notes: also called single mutant A111V of AC_05293; copies: 2 + 2 + 2
In the case of B14, the “EC50 (read off the curve)” value (CD40 [11]) is reported as roughly 0.1 µg/mL.

B15: AM_4121 (bispecific antibody)
heavy 1: not shown
heavy 2: B1 chain
light: B1 light
notes: also called single mutant A111W of AC_05293; copies: 2 + 2 + 2
B15 was tested, and the “EC50 (read off the curve)” value (CD40 [11]) was roughly 0.1 µg/mL.

B16: AC_05377 (bispecific antibody)
heavy 1: not shown
light: B1 light
heavy 2: B3 chain with T58A
notes: AC_05302 with the mutation in the VH of chain H2; also called T65A mutant of AC_05302; copies: 2 + 2 + 2
B16 was tested, and the “EC50 (read off the curve)” value (CD40 expressed on cells [12]) was roughly 1000 pM.

B17: AC_05378 (bispecific antibody)
heavy 1: not shown
light: B1 light
heavy 2: B3 chain with T58I
notes: AC_05302 with the mutation in the VH of chain H2; also called T65I mutant of AC_05302; copies: 2 + 2 + 2
With B17 the “EC50 (read off the curve)” value (CD40 expressed on cells [12]) was roughly 1000 pM.
